Results published in article doi:10.1101/2023.12.19.572348.

Target: GRASP65-homologue protein 1 (Grh1) (S. cerevisiae) (UniProt Q04410)
Assay: circular dichroism + electron paramagnetic resonance

Sequence of UniProt Q04410 (Q04410 whole entry): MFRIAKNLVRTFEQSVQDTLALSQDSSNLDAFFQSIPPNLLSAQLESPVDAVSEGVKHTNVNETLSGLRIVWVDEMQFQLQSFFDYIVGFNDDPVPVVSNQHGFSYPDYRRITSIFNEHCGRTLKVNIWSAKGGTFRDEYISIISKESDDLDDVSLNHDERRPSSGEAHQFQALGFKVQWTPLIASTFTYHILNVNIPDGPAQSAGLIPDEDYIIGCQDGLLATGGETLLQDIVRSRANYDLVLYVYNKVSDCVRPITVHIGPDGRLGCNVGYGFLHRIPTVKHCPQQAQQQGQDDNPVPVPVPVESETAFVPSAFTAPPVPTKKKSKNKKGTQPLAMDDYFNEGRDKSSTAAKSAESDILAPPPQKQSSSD

Kd: > 1000 µM
Substance: Acyl-CoA Binding Protein 1 (ACBP) (from UniProt P31787 1-87) (natural protein)
